The record followed here is US20140087995A1 (published 2014).

Numbered stars: 1 amine (or outer) side, 2 acyl side, 3 side chain; on linkers, the order of the positions; unused ones are H or OH. Bridge positions count the residues as written; N and C are the ends. * marks the point of attachment. C20 diacid = O=C(O)CCCCCCCCCCCCCCCCCCC(=O)*; γGlu = O=C(O)[C@H](CCC(=O)[*:2])N[*:1]

T1: human calcitonin receptor (human, UniProt P30988 25-474)
T1 construct: whole, on cells; also called hCTR; hCT
T1 sequence (looked up): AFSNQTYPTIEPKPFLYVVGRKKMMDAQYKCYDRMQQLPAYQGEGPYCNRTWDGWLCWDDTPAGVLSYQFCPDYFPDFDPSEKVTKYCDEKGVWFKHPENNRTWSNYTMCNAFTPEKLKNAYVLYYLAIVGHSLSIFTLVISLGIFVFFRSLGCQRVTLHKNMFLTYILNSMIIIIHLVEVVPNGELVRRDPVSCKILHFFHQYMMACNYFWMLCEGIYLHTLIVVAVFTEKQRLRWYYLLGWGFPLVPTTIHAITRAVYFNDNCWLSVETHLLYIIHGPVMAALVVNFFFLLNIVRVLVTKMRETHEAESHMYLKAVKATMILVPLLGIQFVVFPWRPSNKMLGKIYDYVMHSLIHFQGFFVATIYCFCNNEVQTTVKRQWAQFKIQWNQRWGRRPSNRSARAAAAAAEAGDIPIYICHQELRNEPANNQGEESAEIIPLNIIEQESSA

B1: N^α1-[(4S)-4-carboxy-4-(19-carboxynonadecanoylamino)butanoyl]-[Glu14,Arg17,Pro21,Pro27,Asp35,Pro37]-h-amylin (peptide)
peptide: {C20 diacid-γGlu}-KCNTATCATQRLAEFLRHSSPNFGAIPSSTNVGSDTP-NH2
modifications: disulfide 2-7
SMILES: CC[C@H](C)[C@H](NC(=O)[C@H](C)NC(=O)CNC(=O)[C@H](Cc1ccccc1)NC(=O)[C@H](CC(N)=O)NC(=O)[C@@H]1CCCN1C(=O)[C@H](CO)NC(=O)[C@H](CO)NC(=O)[C@H](Cc1c[nH]cn1)NC(=O)[C@H](CCCNC(=N)N)NC(=O)[C@H](CC(C)C)NC(=O)[C@H](Cc1ccccc1)NC(=O)[C@H](CCC(=O)O)NC(=O)[C@H](C)NC(=O)[C@H](CC(C)C)NC(=O)[C@H](CCCNC(=N)N)NC(=O)[C@H](CCC(N)=O)NC(=O)[C@@H](NC(=O)[C@H](C)NC(=O)[C@@H]1CSSC[C@H](NC(=O)[C@H](CCCCN)NC(=O)CC[C@H](NC(=O)CCCCCCCCCCCCCCCCCCC(=O)O)C(=O)O)C(=O)N[C@@H](CC(N)=O)C(=O)N[C@@H]([C@@H](C)O)C(=O)N[C@@H](C)C(=O)N[C@@H]([C@@H](C)O)C(=O)N1)[C@@H](C)O)C(=O)N1CCC[C@H]1C(=O)N[C@@H](CO)C(=O)N[C@@H](CO)C(=O)N[C@H](C(=O)N[C@@H](CC(N)=O)C(=O)N[C@H](C(=O)NCC(=O)N[C@@H](CO)C(=O)N[C@@H](CC(=O)O)C(=O)N[C@H](C(=O)N1CCC[C@H]1C(N)=O)[C@@H](C)O)C(C)C)[C@@H](C)O
notes: also called compound 11
B2: N^α1-[(4S)-4-carboxy-4-(19-carboxynonadecanoylamino)butanoyl]-[Glu14,Arg17,Pro21,Pro27,Pro31]-h-amylin (peptide)
peptide: {C20 diacid-γGlu}-KCNTATCATQRLAEFLRHSSPNFGAIPSSTPVGSNTY-NH2
modifications: disulfide 2-7
SMILES: CC[C@H](C)[C@H](NC(=O)[C@H](C)NC(=O)CNC(=O)[C@H](Cc1ccccc1)NC(=O)[C@H](CC(N)=O)NC(=O)[C@@H]1CCCN1C(=O)[C@H](CO)NC(=O)[C@H](CO)NC(=O)[C@H](Cc1c[nH]cn1)NC(=O)[C@H](CCCNC(=N)N)NC(=O)[C@H](CC(C)C)NC(=O)[C@H](Cc1ccccc1)NC(=O)[C@H](CCC(=O)O)NC(=O)[C@H](C)NC(=O)[C@H](CC(C)C)NC(=O)[C@H](CCCNC(=N)N)NC(=O)[C@H](CCC(N)=O)NC(=O)[C@@H](NC(=O)[C@H](C)NC(=O)[C@@H]1CSSC[C@H](NC(=O)[C@H](CCCCN)NC(=O)CC[C@H](NC(=O)CCCCCCCCCCCCCCCCCCC(=O)O)C(=O)O)C(=O)N[C@@H](CC(N)=O)C(=O)N[C@@H]([C@@H](C)O)C(=O)N[C@@H](C)C(=O)N[C@@H]([C@@H](C)O)C(=O)N1)[C@@H](C)O)C(=O)N1CCC[C@H]1C(=O)N[C@@H](CO)C(=O)N[C@@H](CO)C(=O)N[C@H](C(=O)N1CCC[C@H]1C(=O)N[C@H](C(=O)NCC(=O)N[C@@H](CO)C(=O)N[C@@H](CC(N)=O)C(=O)N[C@H](C(=O)N[C@@H](Cc1ccc(O)cc1)C(N)=O)[C@@H](C)O)C(C)C)[C@@H](C)O
notes: also called compound 31
B3: N^α1-[(4S)-4-carboxy-4-(19-carboxynonadecanoylamino)butanoyl]-[Glu14,Arg17,Pro21,Pro27,Pro37]-h-amylin (peptide)
peptide: {C20 diacid-γGlu}-KCNTATCATQRLAEFLRHSSPNFGAIPSSTNVGSNTP-NH2
modifications: disulfide 2-7
SMILES: CC[C@H](C)[C@H](NC(=O)[C@H](C)NC(=O)CNC(=O)[C@H](Cc1ccccc1)NC(=O)[C@H](CC(N)=O)NC(=O)[C@@H]1CCCN1C(=O)[C@H](CO)NC(=O)[C@H](CO)NC(=O)[C@H](Cc1c[nH]cn1)NC(=O)[C@H](CCCNC(=N)N)NC(=O)[C@H](CC(C)C)NC(=O)[C@H](Cc1ccccc1)NC(=O)[C@H](CCC(=O)O)NC(=O)[C@H](C)NC(=O)[C@H](CC(C)C)NC(=O)[C@H](CCCNC(=N)N)NC(=O)[C@H](CCC(N)=O)NC(=O)[C@@H](NC(=O)[C@H](C)NC(=O)[C@@H]1CSSC[C@H](NC(=O)[C@H](CCCCN)NC(=O)CC[C@H](NC(=O)CCCCCCCCCCCCCCCCCCC(=O)O)C(=O)O)C(=O)N[C@@H](CC(N)=O)C(=O)N[C@@H]([C@@H](C)O)C(=O)N[C@@H](C)C(=O)N[C@@H]([C@@H](C)O)C(=O)N1)[C@@H](C)O)C(=O)N1CCC[C@H]1C(=O)N[C@@H](CO)C(=O)N[C@@H](CO)C(=O)N[C@H](C(=O)N[C@@H](CC(N)=O)C(=O)N[C@H](C(=O)NCC(=O)N[C@@H](CO)C(=O)N[C@@H](CC(N)=O)C(=O)N[C@H](C(=O)N1CCC[C@H]1C(N)=O)[C@@H](C)O)C(C)C)[C@@H](C)O
notes: also called compound 8
B4: N^α1-[(4S)-4-carboxy-4-(19-carboxynonadecanoylamino)butanoyl]-[Glu14,Arg17,Pro21,Pro27,His35]-h-amylin (peptide)
peptide: {C20 diacid-γGlu}-KCNTATCATQRLAEFLRHSSPNFGAIPSSTNVGSHTY-NH2
modifications: disulfide 2-7
SMILES: CC[C@H](C)[C@H](NC(=O)[C@H](C)NC(=O)CNC(=O)[C@H](Cc1ccccc1)NC(=O)[C@H](CC(N)=O)NC(=O)[C@@H]1CCCN1C(=O)[C@H](CO)NC(=O)[C@H](CO)NC(=O)[C@H](Cc1c[nH]cn1)NC(=O)[C@H](CCCNC(=N)N)NC(=O)[C@H](CC(C)C)NC(=O)[C@H](Cc1ccccc1)NC(=O)[C@H](CCC(=O)O)NC(=O)[C@H](C)NC(=O)[C@H](CC(C)C)NC(=O)[C@H](CCCNC(=N)N)NC(=O)[C@H](CCC(N)=O)NC(=O)[C@@H](NC(=O)[C@H](C)NC(=O)[C@@H]1CSSC[C@H](NC(=O)[C@H](CCCCN)NC(=O)CC[C@H](NC(=O)CCCCCCCCCCCCCCCCCCC(=O)O)C(=O)O)C(=O)N[C@@H](CC(N)=O)C(=O)N[C@@H]([C@@H](C)O)C(=O)N[C@@H](C)C(=O)N[C@@H]([C@@H](C)O)C(=O)N1)[C@@H](C)O)C(=O)N1CCC[C@H]1C(=O)N[C@@H](CO)C(=O)N[C@@H](CO)C(=O)N[C@H](C(=O)N[C@@H](CC(N)=O)C(=O)N[C@H](C(=O)NCC(=O)N[C@@H](CO)C(=O)N[C@@H](Cc1c[nH]cn1)C(=O)N[C@H](C(=O)N[C@@H](Cc1ccc(O)cc1)C(N)=O)[C@@H](C)O)C(C)C)[C@@H](C)O
notes: also called compound 18
B5: N^α1-[(4S)-4-carboxy-4-(19-carboxynonadecanoylamino)butanoyl]-[Glu14,Arg17,Pro21,Pro27,Pro29]-h-amylin (peptide)
peptide: {C20 diacid-γGlu}-KCNTATCATQRLAEFLRHSSPNFGAIPSPTNVGSNTY-NH2
modifications: disulfide 2-7
SMILES: CC[C@H](C)[C@H](NC(=O)[C@H](C)NC(=O)CNC(=O)[C@H](Cc1ccccc1)NC(=O)[C@H](CC(N)=O)NC(=O)[C@@H]1CCCN1C(=O)[C@H](CO)NC(=O)[C@H](CO)NC(=O)[C@H](Cc1c[nH]cn1)NC(=O)[C@H](CCCNC(=N)N)NC(=O)[C@H](CC(C)C)NC(=O)[C@H](Cc1ccccc1)NC(=O)[C@H](CCC(=O)O)NC(=O)[C@H](C)NC(=O)[C@H](CC(C)C)NC(=O)[C@H](CCCNC(=N)N)NC(=O)[C@H](CCC(N)=O)NC(=O)[C@@H](NC(=O)[C@H](C)NC(=O)[C@@H]1CSSC[C@H](NC(=O)[C@H](CCCCN)NC(=O)CC[C@H](NC(=O)CCCCCCCCCCCCCCCCCCC(=O)O)C(=O)O)C(=O)N[C@@H](CC(N)=O)C(=O)N[C@@H]([C@@H](C)O)C(=O)N[C@@H](C)C(=O)N[C@@H]([C@@H](C)O)C(=O)N1)[C@@H](C)O)C(=O)N1CCC[C@H]1C(=O)N[C@@H](CO)C(=O)N1CCC[C@H]1C(=O)N[C@H](C(=O)N[C@@H](CC(N)=O)C(=O)N[C@H](C(=O)NCC(=O)N[C@@H](CO)C(=O)N[C@@H](CC(N)=O)C(=O)N[C@H](C(=O)N[C@@H](Cc1ccc(O)cc1)C(N)=O)[C@@H](C)O)C(C)C)[C@@H](C)O
notes: also called compound 37

For the first assay, the target named is T1, human calcitonin receptor. The assay is described as follows: ratio of IC50 at hCTR to IC50 at the human amylin receptor (reference). How it is done: The resulting pellet was resuspended, homogenized and centrifuged (20.000 rpm, 15 min) in a buffer containing 20 mM Na-HEPES and 0.1 mM EDTA (pH 7.4, buffer 2). The resulting pellet was resuspended in buffer 2 and protein concentration was measured (BCA protein Assay, Pierce). The homogenate was kept cold during the whole procedure. The membranes were kept at −80° C. until use. The assay was performed in a 384 well Optiplate (PerkinElmer) in a total volume of 40 ul. Membranes were mixed with SPA beads. Final concentration of membranes 35 ng/μL final and SPA beads was 0.05 mg/well. Test-compounds were dissolved in DMSO and further diluted in assay buffer (50 mM Hepes, pH 7.4, 1 mM CaCl2, 5 mM MgCl₂, 0.1% OA and 0.02% Tween20). […] The final mixture was incubated with shaking at 400 rpm for 120 min at 25° C. prior to centrifugation (1500 rpm, 10 min). Samples were analyzed on TopCounter™ (Packard). The IC₅₀ was calculated using (one site binding competition analysis) GraphPad Prism5 as a measure of receptor affinity.
Membranes were prepared in the following way; the cells were rinsed with PBS and incubated with Versene for approximately 5 min before harvesting. The cells were flushed with PBS and the cell-suspension was centrifuged for 5 min at 1000 rpm. Cells were homogenized (Ultrathurrax) in a buffer containing 20 mM Na-HEPES and 10 mM EDTA (pH 7.4) and centrifuged at 20.000 rpm for 15 min. The resulting pellet was resuspended, homogenized and centrifuged (20.000 rpm, 15 min) in a buffer containing 20 mM Na-HEPES and 0.1 mM EDTA (pH 7.4, buffer 2). The resulting pellet was resuspended in buffer 2 and protein concentration was measured (BCA protein Assay, Pierce). The homogenate was kept cold during the whole procedure. The membranes were kept at −80° C. until use. Assay was performed in a 384 well Optiplate (PerkinElmer) in a total volume of 40 ul. Membranes were mixed with SPA beads.
As to B1, the “Ratio hCT/hAmylin binding” value stood at 1.

With B2, the “Ratio hCT/hAmylin binding” value is 16.

As to B3, the “Ratio hCT/hAmylin binding” value turned out to be 0.5.

B4: the “Ratio hCT/hAmylin binding” value is 9.2.

On to B5, for which the “Ratio hCT/hAmylin binding” value is 2.3.

In another assay the target is T1, human calcitonin receptor. The assay is described as follows: SPA competition binding, membranes with human calcitonin receptor, displacement of 125I-calcitonin (Assay VII). Here is the method:
Membranes were prepared in the following way; the cells were rinsed with PBS and incubated with Versene for approximately 5 min before harvesting. The cells were flushed with PBS and the cell-suspension was centrifuged for 5 min at 1000 rpm. Cells were homogenized (Ultrathurrax) in a buffer containing 20 mM Na-HEPES and 10 mM EDTA (pH 7.4) and centrifuged at 20.000 rpm for 15 min. The resulting pellet was resuspended, homogenized and centrifuged (20.000 rpm, 15 min) in a buffer containing 20 mM Na-HEPES and 0.1 mM EDTA (pH 7.4, buffer 2). The resulting pellet was resuspended in buffer 2 and protein concentration was measured (BCA protein Assay, Pierce). The homogenate was kept cold during the whole procedure. The membranes were kept at −80° C. until use. Assay was performed in a 384 well Optiplate (PerkinElmer) in a total volume of 40 ul. Membranes were mixed with SPA beads. Final concentration of membranes 35 ng/μL final and Final concentration of SPA beads was 0.05 mg/well. Test-compounds were dissolved in DMSO and further diluted in assay buffer (50 mM Hepes, pH 7.4, 1 mM CaCl2, 5 mM MgCl₂, 0.1% OA and 0.02% Tween20). […] The final mixture was incubated for 120 min with shaking at 400 rpm at 25° C. prior to centrifugation (1500 rpm, 10 min). Samples were analyzed on TopCounter™ (Packard). The […] was calculated using (one site binding competition analysis) GraphPad Prism5 as a measure of receptor affinity.
In general terms: Loss of bound radioactivity is the signal in a displacement assay; it reports binding, not function.
B1: the half-maximal inhibitory concentration (IC50) (as a rule, the point on the concentration scale where inhibition reaches its midpoint) is 0.101 nM.

Consider B2, for which the IC50 is 3.26 nM.

For the molecule B3, the half-maximal inhibitory concentration (IC50) is 0.038 nM.

On to B4, for which the IC50 is 5.09 nM.

On to B5, for which the half-inhibitory concentration (IC50) worked out at 2.18 nM.
